Measurements as given in the supplement of paper PMC5998384.

How the values were obtained:
HeLa Kyoto [1] = assay: solubility in G1/S (NP-40 vs SDS abundance) (log2 ratio); higher = more soluble; details: cell cycle stage: G1/S
HeLa Kyoto [2] = assay: solubility change mitosis vs G1/S (difference of NP-40 vs SDS log2 ratios) (log2 ratio difference); higher = more soluble in mitosis
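Throughout, for solubility change mitosis vs G1/S (difference of NP-40 vs SDS log2 ratios): synchronized HeLa Kyoto cells (double thymidine block for G1/S, nocodazole release for mitosis), protein amounts in NP-40 versus SDS lysates quantified by mass spectrometry, three biological replicates.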
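Throughout, for solubility in G1/S (NP-40 vs SDS abundance): HeLa Kyoto cells arrested at G1/S by double thymidine block, proteins quantified by TMT10plex mass spectrometry in mild NP-40 versus SDS extracts, three biological replicates.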

Row | Substance | solubility in G1/S (log2) (HeLa Kyoto [1]) | solubility change mitosis (log2) (HeLa Kyoto [2])
1 | MPVSTSLHQDGSQERPVSLTSTTSSSGSSCDSRSAMEEPSSSEAPAKNGAGSLRSRHLPNSNNNSSSWLNVKGPLSPFNSRAAAGPAHHKLSYLGRVVREIVETERMYVQDLRSIVEDYLLKIIDTPGLLKPEQVSALFGNIENIYALNSQLLRDLDSCNSDPVAVASCFVERSQEFDIYTQYCNNYPNSVAALTECMRDKQQAKFFRDRQELLQHSLPLGSYLLKPVQRILKYHLLLQEIAKHFDEEEDGFEVVEDAIDTMTCVAWYINDMKRRHEHAVRLQEIQSLLINWKGPDLTTYGELVLEGTFRVHRVRNERTFFLFDKTLLITKKRGDHFVYKGNIPCSSLMLIESTRDSLCFTVTHYKHSKQQYSIQAKTVEEKRNWTHHIKRLILENHHATIPQKAKEAILEMDSYYPNRYRCSPERLKKAWSSQDEVSTNVRQGRRQSEPTKHLLRQLNEKARAAGMKGKGRRESESSRSSRRPSGRSPTSTEKRMSFESISSLPEVEPDPEAGSEQEVFSAVEGPSAEETPSDTESPEVLETQLDAHQGLLGMDPPGDMVDFVAAESTEDLKALSSEEEEEMGGAAQEPESLLPPSVLDQASVIAERFVSSFSRRSSVAQEDSKSSGFGSPRLVSRSSSVLSLEGSEKGLARHGSATDSLSCQLSPEVDISVGVATEDSPSVNGMEPPSPGCPVEPDRSSCKKKESALSTRDRLLLDKIKSYYENAEHHDAGFSVRRRESLSYIPKGLVRNSISRFNSLPRPDPEPVPPVGSKRQVGSRPTSWALFELPGPSQAVKGDPPPISDAEFRPSSEIVKIWEGMESSGGSPGKGPGQGQANGFDLHEPLFILEEHELGAITEESATASPESSSPTEGRSPAHLARELKELVKELSSSTQGELVAPLHPRIVQLSHVMDSHVSERVKNKVYQLARQYSLRIKSNKPVMARPPLQWEKVAPERDGKSPTVPCLQEEAGEPLGGKGKRKPVLSLFDYEQLMAQEHSPPKPSSAGEMSPQRFFFNPSAVSQRTTSPGGRPSARSPLSPTETFSWPDVRELCSKYASRDEARRAGGGRPRGPPVNRSHSVPENMVEPPLSGRVGRCRSLSTKRGRGGGEAAQSPGPLPQSKPDGGETLYVTADLTLEDNRRVIVMEKGPLPSPTAGLEESSGQGPSSPVALLGQVQDFQQSAECQPKEEGSRDPADPSQQGRVRNLREKFQALNSVG [PLEKHG3] | -0.79 | -0.239
2 | MEEIKPASASCVSKEKPSKVSDLISRFEGGSSLSNYSDLKKESAVNLNAPRTPGRHGLTTTPQQKLLSQHLPQRQGNDTDKTQGAQTCVANGVMAAQNQMECEEEKAATLSSDTSIQASEPLLDTHIVNGERDETATAPASPTTDSCDGNASDSSYRTPGIGPVLPLEERGAETETKVQERENGESPLELEQLDQHHEMKETNEQKLHKIANELLLTERAYVNRLDLLDQVFYCKLLEEANRGSFPAEMVNKIFSNISSINAFHSKFLLPELEKRMQEWETTPRIGDILQKLAPFLKMYGEYVKGFDNAMELVKNMTERIPQFKSVVEEIQKQKICGSLTLQHHMLEPVQRIPRYEMLLKDYLRKLPPDSLDWNDAKKSLEIISTAASHSNSAIRKMENLKKLLEIYEMLGEEEDIVNPSNELIKEGQILKLAARNTSAQERYLFLFNNMLLYCVPKFSLVGSKFTVRTRVGIDGMKIVETQNEEYPHTFQVSGKERTLELQASSAQDKEEWIKALQETIDAFHQRHETFRNAIAKDNDIHSEVSTAELGKRAPRWIRDNEVTMCMKCKEPFNALTRRRHHCRACGYVVCWKCSDYKAQLEYDGGKLSKVCKDCYQIISGFTDSEEKKRKGILEIESAEVSGNSVVCSFLQYMEKSKPWQKAWCVIPKQDPLVLYMYGAPQDVRAQATIPLLGYVVDEMPRSADLPHSFKLTQSKSVHSFAADSEELKQKWLKVILLAVTGETPGGPNEHPATLDDHPEPKKKSEC [FGD4] | -0.163 | -0.00729
3 | MRAPIPEPKPGDLIEIFRPFYRHWAIYVGDGYVVHLAPPSEVAGAGAASVMSALTDKAIVKKELLYDVAGSDKYQVNNKHDDKYSPLPCSKIIQRAEELVGQEVLYKLTSENCEHFVNELRYGVARSDQVRDVIIAASVAGMGLAAMSLIGVMFSRNKRQKQ [PLA2G16] | 0.0787 | -0.137
4 | MGSRPPCGATSSARRACQFPAPMAAAREPELPQEAPATEPAPPPACRFFLEGRCRFGARCRQPHPGAPAPPGREAQPEAGAKKPPLRTAADVIQRIRWDPRLDPADFSVGYVDRFLGVREEPFSAFCWDQPLAALGPGVLAVPQHRVRFFRFHGRLVWDRASRTDLVFGSGSAAGRGPTILDAPNTEGAHGAEGAEWTLAGTGQEAQAAPKRGSTRPLCTGHQEPGVEEPGELEAAQERALGTAADLGTLAPRGRLAGVTEEALKPTAATRTTLLGGKEAQALGVPGGSAETTEAEWGPAAWPEDKRARLSVAAPCQPRPTHFVALMVTEPGLQAEVTKAQEYLVHVAPHCANFLVPSQNLHLTLALLRLAGAGEEAAAIGALRRALLAPGLNAPPRLSFRKLVLLGPHVLCAPPSPTLESMAQVLSQRLEAEGLSTLQSPGQLHPHLTVAKVPHGSQVHLPKLEFTLSQEVGCQPLQTLWLCRIGRTGGPFQPLAEIRLE [LENG9] | 0.366 | -0.034
5 | NBEAL1 | -0.894 | -0.118
6 | MDAAEPGLPPGPEGRKRYSDIFRSLDNLEISLGNVTLEMLAGDPLLSEDPEPDKTPTATVTNEASCWSGPSPEGPVPLTGEELDLRLIRTKGGVDAALEYAKTWSRYAKELLAWTEKRASYELEFAKSTMKIAEAGKVSIQQQSHMPLQYIYTLFLEHDLSLGTLAMETVAQQKRDYYQPLAAKRTEIEKWRKEFKEQWMKEQKRMNEAVQALRRAQLQYVQRSEDLRARSQGSPEDSAPQASPGPSKQQERRRRSREEAQAKAQEAEALYQACVREANARQQDLEIAKQRIVSHVRKLVFQGDEVLRRVTLSLFGLRGAQAERGPRAFAALAECCAPFEPGQRYQEFVRALRPEAPPPPPPAFSFQEFLPSLNSSPLDIRKKLSGPLPPRLDENSAEPGPWEDPGTGWRWQGTPGPTPGSDVDSVGGGSESRSLDSPTSSPGAGTRQLVKASSTGTESSDDFEERDPDLGDGLENGLGSPFGKWTLSSAAQTHQLRRLRGPAKCRECEAFMVSGTECEECFLTCHKRCLETLLILCGHRRLPARTPLFGVDFLQLPRDFPEEVPFVVTKCTAEIEHRALDVQGIYRVSGSRVRVERLCQAFENGRALVELSGNSPHDVSSVLKRFLQELTEPVIPFHLYDAFISLAKTLHADPGDDPGTPSPSPEVIRSLKTLLVQLPDSNYNTLRHLVAHLFRVAARFMENKMSANNLGIVFGPTLLRPPDGPRAASAIPVTCLLDSGHQAQLVEFLIVHYEQIFGMDELPQATEPPPQDSSPAPGPLTTSSQPPPPHLDPDSQPPVLASDPGPDPQHHSTLEQHPTATPTEIPTPQSDQREDVAEDTKDGGGEVSSQGPEDSLLGTQSRGHFSRQPVKYPRGGVRPVTHQLSSLALVASKLCEETPITSVPRGSLRGRGPSPAAASPEGSPLRRTPLPKHFEITQETARLLSKLDSEAVPRATCCPDVQPEEAEDHL [GMIP] | 0.095 | 0.0497
7 | MSNNLRRVFLKPAEENSGNASRCVSGCMYQVVQTIGSDGKNLLQLLPIPKSSGNLIPLVQSSVMSDALKGNTGKPVQVTFQTQISSSSTSASVQLPIFQPASSSNYFLTRTVDTSEKGRVTSVGTGNFSSSVSKVQSHGVKIDGLTMQTFAVPPSTQKDSSFIVVNTQSLPVTVKSPVLPSGHHLQIPAHAEVKSVPASSLPPSVQQKILATATTSTSGMVEASQMPTVIYVSPVNTVKNVVTKNFQNIYPKPVTEIAKPVILNTTQIPKNVATETQLKGGQHSQAAPVKWIFQDNLQPFTPSLVPVKSSNNVASKILKTFVDRKNLGDNTINMPPLSTIDPSGTRSKNMPIKDNALVMFNGKVYLLAKKGTDVLPSQIDQQNSVSPDTPVRKDTLQTVSSSPVTEISREVVNIVLAKSKSSQMETKSLSNTQLASMANLRAEKNKVEKPSPSTTNPHMNQSSNYLKQSKTLFTNPIFPVGFSTGHNAPRKVTAVIYARKGSVLQSIEKISSSVDATTVTSQQCVFRDQEPKIHNEMASTSDKGAQGRNDKKDSQGRSNKALHLKSDAEFKKIFGLTKDLRVCLTRIPDHLTSGEGFDSFSSLVKSGTYKETEFMVKEGERKQQNFDKKRKAKTNKKMDHIKKRKTENAYNAIINGEANVTGSQLLSSILPTSDVSQHNILTSHSKTRQEKRTEMEYYTHEKQEKGTLNSNAAYEQSHFFNKNYTEDIFPVTPPELEETIRDEKIRRLKQVLREKEAALEEMRKKMHQK [LRIF1] | -0.92 | 0.89
8 | MEGSFSDGGALPEGLAEEAEPQGAAWSGDSGTVSQSHSSASGPWEDEGAEDGAPGRDLPLLRRAAAGYAACLLPGAGARPEVEALDASLEDLLTRVDEFVGMLDMLRGDSSHVVSEGVPRIHAKAAEMRRIYSRIDRLEAFVRMVGGRVARMEEQVTKAEAELGTFPRAFKKLLHTMNVPSLFSKSAPSRPQQAGYEAPVLFRTEDYFPCCSERPQL [BLOC1S4] | 0.477 | 0.323
9 | MDRRKKPLDVTASSLVDLKAELFRKQEEFKQEKLLKDSGVFGKPKTTNKKPSIWSKQNVGVSNRAEKDAEQKIEEQKTLDKAREKLEEKAKLYEKMTKGDFIDEEVEDMYLVDFTQKIIDKRKEMEASGAHRDSQKAGERDDDEENLPEGEIPPPQDPSEEWVDYVDSLGRSRRCMRKDLPDLLEMDKNLQGRLFISPANEKTLLSEDMRKELQRQQWEEEEREALKRPMGPVHYEDIRENEARQLGVGYFAFARDKELRNKQMKTLEMLREQTTDQRTKRENIKEKRKAILEARLAKLRQKKMKKSKEGGTEEENRDGDVIGPLPPEPEAVPTPRPAAQSSKVEVIVQERKDTKPGVPHIREWDRGKEFSFGYWSKRQSDLRAERDPEFAPPSDYFVGQKRTGFSSSQAWSRPGPAQSDPGQCPDQSHGPSPEHTSPTPAPDNPPQAPTVTFKTLDDMISYYKQVT [CCDC174] | 0.12 | 0.139
10 | MAAPVRLGRKRPLPACPNPLFVRWLTEWRDEATRSRRRTRFVFQKALRSLRRYPLPLRSGKEAKILQHFGDGLCRMLDERLQRHRTSGGDHAPDSPSGENSPAPQGRLAEVQDSSMPVPAQPKAGGSGSYWPARHSGARVILLVLYREHLNPNGHHFLTKEELLQRCAQKSPRVAPGSARPWPALRSLLHRNLVLRTHQPARYSLTPEGLELAQKLAESEGLSLLNVGIGPKEPPGEETAVPGAASAELASEAGVQQQPLELRPGEYRVLLCVDIGETRGGGHRPELLRELQRLHVTHTVRKLHVGDFVWVAQETNPRDPANPGELVLDHIVERKRLDDLCSSIIDGRFREQKFRLKRCGLERRVYLVEEHGSVHNLSLPESTLLQAVTNTQVIDGFFVKRTADIKESAAYLALLTRGLQRLYQGHTLRSRPWGTPGNPESGAMTSPNPLCSLLTFSDFNAGAIKNKAQSVREVFARQLMQVRGVSGEKAAALVDRYSTPASLLAAYDACATPKEQETLLSTIKCGRLQRNLGPALSRTLSQLYCSYGPLT [MUS81] | -0.347 | 0.243
11 | MDPIRSFCGKLRSLASTLDCETARLQRALDGEESDFEDYPMRILYDLHSEVQTLKDDVNILLDKARLENQEGIDFIKATKVLMEKNSMDIMKIREYFQKYGYSPRVKKNSVHEQEAINSDPELSNCENFQKTDVKDDLSDPPVASSCISEKSPRSPQLSDFGLERYIVSQVLPNPPQAVNNYKEEPVIVTPPTKQSLVKVLKTPKCALKMDDFECVTPKLEHFGISEYTMCLNEDYTMGLKNARNNKSEEAIDTESRLNDNVFATPSPIIQQLEKSDAEYTNSPLVPTFCTPGLKIPSTKNSIALVSTNYPLSKTNSSSNDLEVEDRTSLVLNSDTCFENLTDPSSPTISSYENLLRTPTPPEVTKIPEDILQLLSKYNSNLATPIAIKAVPPSKRFLKHGQNIRDVSNKEN [SKA3] | 0.436 | 0.0344
